B1: Azoarcus group I ribozyme (parent)
chain: GUGCCUUGCGCCGGGAAACCACGCAAGGGAUGGUGUCAAAUUCGGCGAAACCUAAGCGCCCGCCCGGGCGUAUGGCAACGCCGAGCCAAGCUUCGGCGCCUGCGCCGAUGAAGGUGUAGAGACUAGACGGCACCCACCUAAGGCAAACGCUAUGGUGAAGGCAUAGUCCAGGGAGUGGCGAAAGUCACACAAACCGG

Variants of: B1
Test: reverse-splicing fitness (ratio to wild type); higher = more active; in vitro selection; Mg2+ level not given
Outline: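 An in vitro group I ribozyme library with randomized positions was T7-transcribed and gel-purified. In triplicate, 10 pmol RNA in EPPS pH 7.5 was reacted with 50 pmoles of a 30-nt RNA substrate for 1 h at 37 °C across several added MgCl2 levels (1–48 mM), then stopped with EDTA. Products were reverse transcribed from a substrate-complementary primer, PCR-amplified and sequenced (HiSeq 4000). Fitness is a variant's read proportion after selection over that before, normalised to wild type.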

Point of comparison: C82U A111G A120C A145G C150U C169U, reverse-splicing fitness 0.0127. Against it:
- C82U A111G A120C A145C C150G C169U — lower, 0.00749
- C82U A111G A120C A145C C150G C169U U176A — lower, 0.00787
- C82U A111G A120C A145C C150G C169U U176C — lower, 0.0112
- C82U A111G A120C A145C C150G C169U U176G — lower, 0.00424
- C82U A111G A120C A145C C150G U176A — lower, 0.00388
- C82U A111G A120C A145C C150G U176C — lower, 0.00742
- C82U A111G A120C A145C C150G U176G — lower, 0.00231
- C82U A111G A120C A145C C150U — higher, 0.0145
- C82U A111G A120C A145C C150U C169A — lower, 0.00705
- C82U A111G A120C A145C C150U C169A U176A — lower, 0.00891
- C82U A111G A120C A145C C150U C169A U176C — lower, 0.00487
- C82U A111G A120C A145C C150U C169A U176G — lower, 0.00468
- C82U A111G A120C A145C C150U C169G — lower, 0.0077
- C82U A111G A120C A145C C150U C169G U176A — higher, 0.0173
- C82U A111G A120C A145C C150U C169G U176C — lower, 0.00801
- C82U A111G A120C A145C C150U C169G U176G — lower, 0.00444
- C82U A111G A120C A145C C150U C169U — lower, 0.00927
- C82U A111G A120C A145C C150U C169U U176A — higher, 0.0144
- C82U A111G A120C A145C C150U C169U U176C — lower, 0.00942
- C82U A111G A120C A145C C150U C169U U176G — lower, 0.00402
- C82U A111G A120C A145C C150U U176A — lower, 0.0105
- C82U A111G A120C A145C C150U U176C — lower, 0.0114
- C82U A111G A120C A145C C150U U176G — lower, 0.00465
- C82U A111G A120C A145C C169A — lower, 0.00548
- C82U A111G A120C A145C C169A U176A — lower, 0.00738
- C82U A111G A120C A145C C169A U176C — lower, 0.00404
- C82U A111G A120C A145C C169A U176G — lower, 0.003
- C82U A111G A120C A145C C169G — lower, 0.00713
- C82U A111G A120C A145C C169G U176A — higher, 0.0164
- C82U A111G A120C A145C C169G U176C — lower, 0.00852
- C82U A111G A120C A145C C169G U176G — lower, 0.00381
- C82U A111G A120C A145C C169U — lower, 0.0106
- C82U A111G A120C A145C C169U U176A — higher, 0.0142
- C82U A111G A120C A145C C169U U176C — lower, 0.0107
- C82U A111G A120C A145C C169U U176G — lower, 0.0032
- C82U A111G A120C A145C U176A — higher, 0.0156
- C82U A111G A120C A145C U176C — higher, 0.0213
- C82U A111G A120C A145C U176G — lower, 0.00487
- C82U A111G A120C A145G — higher, 0.0552
- C82U A111G A120C A145G C150A — higher, 0.0129
- C82U A111G A120C A145G C150A C169A — lower, 0.00928
- C82U A111G A120C A145G C150A C169A U176A — higher, 0.0157
- C82U A111G A120C A145G C150A C169A U176C — higher, 0.018
- C82U A111G A120C A145G C150A C169A U176G — lower, 0.00589
- C82U A111G A120C A145G C150A C169G — lower, 0.0105
- C82U A111G A120C A145G C150A C169G U176A — higher, 0.0237
- C82U A111G A120C A145G C150A C169G U176C — higher, 0.0213
- C82U A111G A120C A145G C150A C169G U176G — lower, 0.00547
- C82U A111G A120C A145G C150A C169U — lower, 0.0111
- C82U A111G A120C A145G C150A C169U U176A — higher, 0.015
- C82U A111G A120C A145G C150A C169U U176C — higher, 0.014
- C82U A111G A120C A145G C150A C169U U176G — lower, 0.00508
- C82U A111G A120C A145G C150A U176A — lower, 0.0119
- C82U A111G A120C A145G C150A U176C — higher, 0.0246
- C82U A111G A120C A145G C150A U176G — lower, 0.00727
- C82U A111G A120C A145G C150G — lower, 0.00985
- C82U A111G A120C A145G C150G C169A — lower, 0.00845
- C82U A111G A120C A145G C150G C169A U176A — lower, 0.0113
- C82U A111G A120C A145G C150G C169A U176C — lower, 0.0107
- C82U A111G A120C A145G C150G C169A U176G — lower, 0.00661
- C82U A111G A120C A145G C150G C169G — lower, 0.00678
- C82U A111G A120C A145G C150G C169G U176A — lower, 0.00909
- C82U A111G A120C A145G C150G C169G U176C — lower, 0.00625
- C82U A111G A120C A145G C150G C169G U176G — lower, 0.00471
- C82U A111G A120C A145G C150G C169U — lower, 0.00846
- C82U A111G A120C A145G C150G C169U U176A — lower, 0.00704
- C82U A111G A120C A145G C150G C169U U176C — lower, 0.0109
- C82U A111G A120C A145G C150G C169U U176G — lower, 0.0053
- C82U A111G A120C A145G C150G U176A — lower, 0.00545
- C82U A111G A120C A145G C150G U176C — lower, 0.00793
- C82U A111G A120C A145G C150G U176G — lower, 0.0033
- C82U A111G A120C A145G C150U — higher, 0.042
- C82U A111G A120C A145G C150U C169A — lower, 0.00939
- C82U A111G A120C A145G C150U C169A U176A — higher, 0.0135
- C82U A111G A120C A145G C150U C169A U176C — higher, 0.0152
- C82U A111G A120C A145G C150U C169A U176G — lower, 0.00429
- C82U A111G A120C A145G C150U C169G — lower, 0.0102
- C82U A111G A120C A145G C150U C169G U176A — higher, 0.0191
- C82U A111G A120C A145G C150U C169G U176C — higher, 0.0188
- C82U A111G A120C A145G C150U C169G U176G — lower, 0.00507
- C82U A111G A120C A145G C150U C169U U176A — higher, 0.0147
- C82U A111G A120C A145G C150U C169U U176C — the same, 0.0127
- C82U A111G A120C A145G C150U C169U U176G — lower, 0.00448
